This note sets out measurements from paper PMC5931534.

In experiment [1] the target is calmodulin (CaM) (UniProt P62157).
Experiment [2] has the same target. Briefly: ELISA; 96-well MaxiSorp plates coated with 1 ug CaM at 4 C overnight, blocked with 4% BSA; 80 ng DAPK2 for 15 min at 30 C; detected with anti-DAPK2 antibody, HRP secondary and ABTS. Background: An ELISA detects its analyte on a solid surface through an enzyme-linked reagent.

FLAG-DAPK2 S289A, sequence (Q9UIK4 whole entry, stated change not applied): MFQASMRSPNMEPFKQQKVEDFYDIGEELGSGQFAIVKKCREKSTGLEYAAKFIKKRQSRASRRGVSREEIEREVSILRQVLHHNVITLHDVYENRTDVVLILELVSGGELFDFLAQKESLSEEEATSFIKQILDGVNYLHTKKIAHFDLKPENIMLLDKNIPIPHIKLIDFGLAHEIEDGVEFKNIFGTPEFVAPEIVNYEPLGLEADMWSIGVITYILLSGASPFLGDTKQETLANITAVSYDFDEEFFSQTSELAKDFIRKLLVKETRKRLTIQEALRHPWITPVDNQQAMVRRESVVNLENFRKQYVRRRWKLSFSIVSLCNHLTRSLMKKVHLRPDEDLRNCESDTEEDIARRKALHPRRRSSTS
FLAG-DAPK2 S289D, sequence (Q9UIK4 whole entry, stated change not applied): as above

“FLAG-DAPK2 S289D (from UniProt Q9UIK4-1 1-370) (enzyme)”: the fold induction of the catalytic activity (MLC phosphorylation, in vitro kinase assay) upon addition of Ca2+/CaM against EGTA in the experiment with calmodulin (CaM) [1] is 1.6 fold.

“FLAG-DAPK2 S289A (from UniProt Q9UIK4-1 1-370) (enzyme)” registered a fold induction of the catalytic activity (MLC phosphorylation, in vitro kinase assay) upon addition of Ca2+/CaM against EGTA with calmodulin (CaM) [1] of 5.4 fold. The substance “DAPK2 S289D (ELISA CaM binding assay) (from UniProt Q9UIK4-1 1-370) (enzyme)” had a fold lower ELISA signal than DAPK2 WT with calmodulin (CaM) [2] of 5 fold.
